Source: publication PMC6021012

How the values were obtained:
[1] = molecular target: phosphorylated CheY K91C, methylene blue at position 91 (E. coli) (UniProt P0AE67); experiment: electrochemical sensor
[2] = molecular target: CheY K91C, methylene blue at position 91 (E. coli) (UniProt P0AE67); experiment: electrochemical sensor

16-residue target region of the flagellar switch protein FliM (peptide)
Kd [1]: 16 µM | Kd [2]: 213 µM
